Laboratory results from patent US20240240209A1, “SYNTHESIS OF ENANTIOPURE CIS-A-IRONE FROM A RENEWABLE CARBON SOURCE” (Agency for Science, Technology and Research, priority 2021, published 2024).
Substitutions are numbered along the chain they refer to. Names may count otherwise.

B1: pMT12: pMT1 with Y200F S182E L273V L180A A202L Y65F C156D T91P N231D (protein)
chain: MPQEARTPQQQVTADEVGDWYDKFGEVYHLTLGESVHCGLWFPPDAPVPQDMELVTMSSQAQDRFTDYLIETLDPKAGQHLLDIGCGTGRPALKAARQRGIAVTGVAVSKEQIAAANRLAAGHGLTERLTFEVADAMRLPYEDESFDCAWAIESLDHMDRAKALGEAWRVLKPGGDLLVAEEVVTEELTEPETALFETLFALNVPPRLGEFFDIVSGAGFHTLSLKDLSADLAMTMNVFALGVYSRRAEFTERFGAEFVDGLLAGLGSAQETVIRKTRFFMATLRKPAV
modifications: Modified from pMT1
notes: pMT1 with Y200F S182E L273V L180A A202L Y65F C156D T91P N231D
B2: M137H (protein)
chain: B1 chain with M137H
modifications: Modified from pMT1
B3: A14G (protein)
chain: B1 chain with A14G
modifications: Modified from pMT1
B4: A107S (protein)
chain: B1 chain with A107S
modifications: Modified from pMT1
B5: A14T (protein)
chain: B1 chain with A14T
modifications: Modified from pMT1
B6: A269R (protein)
chain: B1 chain with A269R
modifications: Modified from pMT1
B7: T185V (protein)
chain: B1 chain with T185V
modifications: Modified from pMT1
B8: A95L (protein)
chain: B1 chain with A95L
modifications: Modified from pMT1
B9: E190A (protein)
chain: B1 chain with E190A
modifications: Modified from pMT1
B10: A95V (protein)
chain: B1 chain with A95V
modifications: Modified from pMT1
B11: S268R (protein)
chain: B1 chain with S268R
modifications: Modified from pMT1
B12: Q11L (protein)
chain: B1 chain with Q11L
modifications: Modified from pMT1
B13: A95I (protein)
chain: B1 chain with A95I
modifications: Modified from pMT1
B14: Q11V (protein)
chain: B1 chain with Q11V
modifications: Modified from pMT1
B15: H123N (protein)
chain: B1 chain with H123N
modifications: Modified from pMT1
B16: T185L (protein)
chain: B1 chain with T185L
modifications: Modified from pMT1
B17: K94R (protein)
chain: B1 chain with K94R
modifications: Modified from pMT1
B18: A269G (protein)
chain: B1 chain with A269G
modifications: Modified from pMT1
B19: Q11M (protein)
chain: B1 chain with Q11M
modifications: Modified from pMT1
B20: A107G (protein)
chain: B1 chain with A107G
modifications: Modified from pMT1
B21: A269Y (protein)
chain: B1 chain with A269Y
modifications: Modified from pMT1
B22: M137S (protein)
chain: B1 chain with M137S
modifications: Modified from pMT1
B23: Q11P (protein)
chain: B1 chain with Q11P
modifications: Modified from pMT1
B24: K94V (protein)
chain: B1 chain with K94V
modifications: Modified from pMT1
B25: S268Q (protein)
chain: B1 chain with S268Q
modifications: Modified from pMT1
B26: S268L (protein)
chain: B1 chain with S268L
modifications: Modified from pMT1
B27: A14P (protein)
chain: B1 chain with A14P
modifications: Modified from pMT1
B28: A95C: pMT12 with A95C (protein)
chain: B1 chain with A95C
modifications: Modified from pMT1
B29: A14L (protein)
chain: B1 chain with A14L
modifications: Modified from pMT1
B30: A269L (protein)
chain: B1 chain with A269L
modifications: Modified from pMT1
B31: M137N (protein)
chain: B1 chain with M137N
modifications: Modified from pMT1

Assay: In-vivo cis-α-irone production screening of pMT7 and pMT12 mutants
Format: cell-based, Escherichia coli
Settings: mutations made to pMT12; normalized to pMT12 (=1)
Excerpt: Q60 was identified as another possible mutation site.
FIGS. 24a and 24b show the in-vivo and in-vitro cis-α-irone production of other possible single mutations to pMT12. The in-vitro results in FIG. 24b validate the mutations and in-vivo results in FIG. 24a. The mutations in FIG. 24 include Q11H (SEQ ID No. 23), V12R (SEQ ID No. 24), A95C (SEQ ID No. 25), H123Q (SEQ ID No. 26), E127T (SEQ ID No. 27), M137T (SEQ ID No. 28), D176V (SEQ ID No. 29), D176Y (SEQ ID No. 30). P191S (SEQ ID No. 31), P191V (SEQ ID No. 32), F212L (SEQ ID No. 33), S268H (SEQ ID No. 34), AND T272A (SEQ ID No. 35). The screening results in FIGS. 24 and 25 are semi-quantitative to identify beneficial mutants that give greater than one-fold change of irone production as compared to pMT12.
FIGS. 25a to 25c (and Table 4) show the in-vivo testing results of other possible mutations that may be made to pMT12 to improve its in-vivo production of cis-α-irone. FIGS. 25a to 25c each include two dotted lines to account for a 10% error bar to show the normalized fold change of 0.9 and 1.1.
The four plasmids were transformed into E. coli BL21 (DE3), ΔaroA, ΔaroB, ΔaroC, ΔserC or E. coli BL21 (DE3), ΔaroA, ΔaroB, ΔaroC, ΔserC, ΔmetJ strains and plated on Agar plate containing LB media (10 g, tryptone. 5 g, yeast extract. 10 g, NaCl) supplemented with appropriate antibiotics (100 mg/L ampicillin, 34 mg/L chloramphenicol, 50 mg/L kanamycin, and 100 mg/L spectinomycin). One colony was picked and inoculate into LB media with antibiotics. 1% of overnight culture was inoculated into 1 ml fresh auto-inducing chemically defined media. The chemical media contains carbon source solution: 0.5 g/L glucose, 10 g/L glycerol; inducer: 30 mM lactose and base media: 2 g/L ammonium sulfate, 4.2 g/L KH2PO4, 11.24 g/L K2HPO4, 1.7 g/L citric acid, 0.5 g/L MgSO4, and 10 mL/L trace element solution. The trace element solution (100×) contained 0.25 g/L CoCl2·6H2O, 1.5 g/L MnSO4·4H2O, 0.15 g/L CuSO4·2H2O, 0.3 g/L H3BO3, 0.25 g/L Na2MoO4·2H2O, 0.8 g/L Zn(CH3COO)2, 5 g/L Fe(III) citrate, and 0.84 g/L ethylenediaminetetra-acetic acid (EDTA) at pH 8.0. The culture was grown at 28° C. for 3 days and the products were extracted with 1 ml hexane for GCMS analysis. An example of a fed-batch process for α-ionone Is briefly described, overnight culture was inoculated into 2 L chemical media comprising the base media and 5 g/L glucose, at 37° C. and 30% DO. pH was controlled at 7 with base solution (14% ammonia and 0.5 M NaOH). Feed media (500 g/L glucose and 5 g/L MgSO4) was added into bioreactor once OD600 reached 5, at a rate of 7.15-25.75 g/h glucose for about 4-5 h until OD600 reached ˜30-40. Subsequently, 0.1 mM IPTG was added to induce the production, and feeding rate was kept at a constant rate of 10 g/h glucose, and the temperature was reduced to 30° C. DO was adjusted to 2% or 10%. Feeding was stopped at 113 h when 2 L feeding media was finished, but the culture was further incubated for 24 h. To capture the evaporated products, the exhaust was connected to 25 ml sunflower oil.

Molecule | Fold change in in-vivo cis-α-irone production
B1 | 1
B2 | 1.11
B3 | 0.92
B4 | 1.17
B5 | 0.90
B6 | 1.22
B7 | 1.14
B8 | 0.92
B9 | 1.12
B10 | 0.94
B11 | 1.23
B12 | 0.92
B13 | 0.98
B14 | 0.88
B15 | 0.91
B16 | 1.07

Molecule | Fold change in in-vivo cis-α-irone production
B17 | 0.97
B18 | 1.23
B19 | 0.90
B20 | 0.95
B21 | 1.21
B22 | 1.11
B23 | 0.92
B24 | 0.84
B25 | 1.32
B26 | 1.18
B27 | 0.92
B28 | 0.95
B29 | 0.92
B30 | 1.29
B31 | 1.11

Assay: Cell lysate reaction of pMT enzymes with psi-ionone, irones quantified by HS-SPME-GCMS
Format: biochemical
Settings: cell lysate reaction, vs parent or control
Summary of the method: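 pMT1 site-saturation mutants were expressed in E. coli BL21(DE3) and lysed, and lysates were incubated 2 days at 28 °C with 0.2 mM SAM and 10 mg/L psi-ionone (plus caryophyllene) in 50 mM Tris pH 7, 10 mM MgCl2. Cis-α-irone was measured by HS-SPME-GCMS peak area and given as fold change over non-mutated enzyme.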

Molecule | irone production / methyltransferase activity towards psi-ionone (in words)
B1 | maintained the percentage of cis-α-irone produced while further improving the absolute amount produced

Same assay, conditions: single mutations vs parent (pMT7 or pMT12)

Molecule | in-vitro production of cis-α-irone (in words)
B28 | moderate increase
